B1: Hairpin Ribozyme (parent)
chain: GUCCUCUUUCACGUGCGCGUGAAAGAGAGAAGUGAACCAGAGAAACACACGUUGUGGUAUAUUACCUGGUA

Variants of: B1
Assay: self-cleavage, relative activity (ratio to wild type); higher = more cleavage; co-transcriptional

| Variant | self-cleavage |
| --- | --- |
| A44C G51C | 0.289 |
| A44C G54A | 0.184 |
| A44C G54C | 0.0581 |
| A44C G54U | 0.194 |
| A44C G56U | 0.241 |
| A44C G57A | 0.135 |
| A44C G57C | 0.215 |
| A44C G68U | 0.126 |
| A44C U52A | 0.0299 |
| A44C U52C | 0.213 |
| A44C U53G | 0.0885 |
| A44C U58C | 0.141 |
| A44C U58G | 0.128 |
| A44C U60A | 0.172 |
| A44C U62C | 0.279 |
| A44C U67C | 0.099 |
| A44C U67G | 0.094 |
| A44C U70A | 0.109 |
| A44C U70C | 0.176 |
| A44G | 0.146 |
| A44G A47G | 0.17 |
| A44G A59C | 0.179 |
| A44G A59U | 0.155 |
| A44G A64G | 0.0828 |

| Variant | self-cleavage |
| --- | --- |
| A44G A71U | 0.158 |
| A44G C48G | 0.115 |
| A44G C48U | 0.0899 |
| A44G C65A | 0.0664 |
| A44G C65U | 0.0694 |
| A44G C66U | 0.0408 |
| A44G G54U | 0.16 |
| A44G G56U | 0.226 |
| A44G G57C | 0.148 |
| A44G G57U | 0.022 |
| A44G G68A | 0.155 |
| A44G G68C | 0.244 |
| A44G G69C | 0.196 |
| A44G G69U | 0.0884 |
| A44G U52A | 0.246 |
| A44G U55A | 0.0483 |
| A44G U55C | 0.0374 |
| A44G U58G | 0.198 |
| A44G U60A | 0.171 |
| A44G U67A | 0.161 |
| A44G U67G | 0.149 |
| A44G U70A | 0 |
| A44U | 0.141 |
| A44U A45C | 0.321 |

| Variant | self-cleavage |
| --- | --- |
| A44U A47U | 0.0528 |
| A44U C46G | 0.0928 |
| A44U C48G | 0.12 |
| A44U C50A | 0.172 |
| A44U C50G | 0.156 |
| A44U C65U | 0.14 |
| A44U C66G | 0.183 |
| A44U G51A | 0.157 |
| A44U G51C | 0.246 |
| A44U G51U | 0.096 |
| A44U G56C | 0.239 |
| A44U G57C | 0.0924 |
| A44U G57U | 0.206 |
| A44U G68A | 0.116 |
| A44U G68C | 0.148 |
| A44U G69C | 0.159 |
| A44U U52A | 0.237 |
| A44U U53C | 0.0977 |
| A44U U55A | 0.282 |
| A44U U58A | 0.0794 |
| A44U U58C | 0.177 |
| A44U U60G | 0.179 |
| A44U U62C | 0.0868 |
| A44U U62G | 0.0672 |

| Variant | self-cleavage |
| --- | --- |
| A44U U70A | 0.0951 |
| A44U U70C | 0.0872 |
| A45C A47G | 0.0534 |
| A45C A59C | 0.358 |
| A45C A59U | 0.151 |
| A45C A61C | 0.239 |
| A45C A61U | 0.186 |
| A45C A71C | 0.453 |
| A45C A71U | 0.184 |
| A45C C66A | 0.187 |
| A45C C66G | 0.319 |
| A45C C66U | 0 |
| A45C G51A | 0.0999 |
| A45C G54C | 0.137 |
| A45C G57A | 0.115 |
| A45C G68A | 0.229 |
| A45C G68U | 0.166 |
| A45C G69C | 0.193 |
| A45C G69U | 0.215 |
| A45C U53A | 0.123 |
| A45C U53C | 0.0463 |
| A45C U55A | 0.192 |
| A45C U58C | 0.0787 |
| A45C U60G | 0.165 |

| Variant | self-cleavage |
| --- | --- |
| A45C U62A | 0.332 |
| A45C U62G | 0.0741 |
| A45C U63C | 0.0707 |
| A45C U63G | 0.136 |
| A45C U67A | 0.118 |
| A45C U70G | 0.133 |
| A45G A47C | 0.228 |
| A45G A47U | 0.113 |
| A45G A59G | 0.174 |
| A45G A59U | 0.0542 |
| A45G A71C | 0.399 |
| A45G A71G | 0.269 |
| A45G A71U | 0.0799 |
| A45G C46G | 0.181 |
| A45G C48G | 0.113 |
| A45G C48U | 0.0892 |
| A45G C66U | 0.218 |
| A45G G51U | 0.271 |
| A45G G54A | 0.218 |
| A45G G54U | 0.2 |
| A45G G56U | 0.131 |
| A45G G57U | 0.175 |
| A45G G68C | 0.136 |
| A45G G69A | 0.117 |

| Variant | self-cleavage |
| --- | --- |
| A45G G69C | 0.171 |
| A45G G69U | 0.141 |
| A45G U53C | 0.4 |
| A45G U53G | 0.108 |
| A45G U55C | 0.124 |
| A45G U55G | 0 |
| A45G U58G | 0.199 |
| A45G U60A | 0.105 |
| A45G U63A | 0.124 |
| A45G U67G | 0.0311 |
| A45G U70A | 0.184 |
| A45G U70G | 0.137 |
| A45U A47C | 0.132 |
| A45U A47G | 0.178 |
| A45U A47U | 0.0501 |
| A45U A49U | 0.17 |
| A45U A59C | 0.285 |
| A45U A59G | 0.0526 |
| A45U A59U | 0.154 |
| A45U A61C | 0.0246 |
| A45U A61U | 0.122 |
| A45U A64G | 0.16 |
| A45U A64U | 0.0728 |
| A45U A71C | 0.286 |

| Variant | self-cleavage |
| --- | --- |
| A45U A71G | 0.189 |
| A45U A71U | 0.156 |
| A45U C46U | 0.12 |
| A45U C48G | 0.14 |
| A45U C50U | 0.123 |
| A45U C65U | 0.175 |
| A45U G51U | 0.209 |
| A45U G56C | 0.198 |
| A45U G57U | 0.166 |
| A45U G68C | 0.202 |
| A45U G69C | 0.0735 |
| A45U U52C | 0.103 |
| A45U U52G | 0.122 |
| A45U U53A | 0.151 |
| A45U U53G | 0.263 |
| A45U U60A | 0.147 |
| A45U U60G | 0.188 |
| A45U U62C | 0.127 |
| A45U U67A | 0.0841 |
| C46A A49G | 0.0498 |
| C46A A49U | 0.149 |
| C46A A61G | 0.0812 |
| C46A A71U | 0.161 |
